Response data for 1 variant are collected here from paper PMC12415261 (Proceedings of the National Academy of Sciences of the …, 2025).

B1: ALK3-Fc (homodimeric Fc-fusion of ALK3-ECD) [human] / Recombinant human BMP6, mammalian expressed (glycosylated) [modified: N-linked glycosylation at Asn454 (prehelical loop); N-linked glycosylation at Asn454 (prehelical loop)] [human] (parent complex)
chain 1: QNLDSMLHGTGMKSDSDQKKSENGVTLAPEDTLPFLKCYCSGHCPDDAINNTCITNGHCFAIIEEDDQGETTLASGCMKYEGSDFQCKDSPKAQLRRTIECCRTNLCNQYLQPTLPPVVIGPFFDGSIR
chain 2: SASSRRRQQSRNRSTQSQDVARVSSASDYNSSELKTACRKHELYVSFQDLGWQDWIIAPKGYAANYCDGECSFPLNAHMNATNHAIVQTLVHLMNPEYVPKPCCAPTKLNAISVLYFDDNSNVILKKYRNMVVRACGCH

The variants in this assay derive from B1. The experiment in a line: SPR; top curve of the analyte series, read at the end of association (about 300 s); analyte concentrations not given; receptor-Fc captured by anti-human antibody; read off a plot. For orientation: SPR reads the build-up and loss of mass on a sensor chip optically.
Turning to chain 1 QNLDSMLHGTGMKSDSDQKKSENGVTLAPEDTLPFLKCYCSGHCPGDAINNTCITNGHCFAIIEEDDQGETTLASGCMKYEGSDFQCKDSPKAQLRRTIECCRTNLCNQYLQPTLPPVVIGPFFDGSIR [chain 1 D46G], the response was ~9.5 RLU.
